This is an account of results in publication PMC12135040, “Long-Acting Human PASylated Leptin Reaches the Murine Central Nervous System and Offers Potential for Optimized Replacement Therapy” (Molecular Pharmaceutics, 2025).

The target of test [1] is T1, recombinant LepR-Fc fusion protein (human, UniProt P48357 22-839).
T1 sequence (looked up): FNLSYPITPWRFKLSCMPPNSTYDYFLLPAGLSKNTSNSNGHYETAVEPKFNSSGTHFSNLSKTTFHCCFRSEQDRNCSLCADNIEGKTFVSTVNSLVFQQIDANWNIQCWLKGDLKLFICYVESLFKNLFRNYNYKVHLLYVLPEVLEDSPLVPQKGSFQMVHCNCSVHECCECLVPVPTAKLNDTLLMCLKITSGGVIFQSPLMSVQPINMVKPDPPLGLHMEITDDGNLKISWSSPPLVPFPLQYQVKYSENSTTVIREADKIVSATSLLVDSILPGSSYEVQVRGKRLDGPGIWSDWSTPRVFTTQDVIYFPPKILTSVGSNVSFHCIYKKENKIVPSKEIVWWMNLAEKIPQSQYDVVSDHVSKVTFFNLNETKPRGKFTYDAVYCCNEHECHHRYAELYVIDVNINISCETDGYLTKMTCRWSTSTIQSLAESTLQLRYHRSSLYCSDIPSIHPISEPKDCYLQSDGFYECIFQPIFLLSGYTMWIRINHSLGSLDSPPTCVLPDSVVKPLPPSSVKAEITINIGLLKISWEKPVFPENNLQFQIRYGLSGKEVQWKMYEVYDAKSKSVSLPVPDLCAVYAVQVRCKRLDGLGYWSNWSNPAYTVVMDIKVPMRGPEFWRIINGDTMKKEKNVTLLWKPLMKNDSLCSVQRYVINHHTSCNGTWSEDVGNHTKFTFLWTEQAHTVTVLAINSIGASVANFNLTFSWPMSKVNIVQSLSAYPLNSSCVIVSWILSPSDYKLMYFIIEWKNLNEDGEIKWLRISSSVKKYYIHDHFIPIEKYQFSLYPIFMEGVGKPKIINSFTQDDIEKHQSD

The target of test [2] is T1, recombinant LepR-Fc fusion protein. Nature of the test: cell-based or functional assay.

Like-named read-outs stand apart in the source and are kept apart here.

Regarding “murine leptin (recombinant, unmodified) (from UniProt P41160 22-167) (ligand)”, the EC50 of STAT3-responsive dual luciferase reporter in HEK293 cells transiently transfected with human LepRb (whole receptor on cells); leptin 50 fM to 500 nM, 18 h in test [1] came out at 40 pM.

Consider “huLeptin^W100E (recombinant, unmodified) (from UniProt P41159 22-167) (ligand)”, for which the EC50 of STAT3-responsive dual luciferase reporter in HEK293 cells transiently transfected with human LepRb (whole receptor on cells); leptin 50 fM to 500 nM, 18 h in test [1] came to 100 pM.

For “PAS(200)-huLeptin (human wild-type leptin, PASylated) (from UniProt P41159 22-167) (ligand)”, in test [1], the EC50 of STAT3-responsive dual luciferase reporter in HEK293 cells transiently transfected with human LepRb (whole receptor on cells); PASylated leptin 50 fM to 500 nM, 18 h amounted to 1200 pM.

As to “human wild-type leptin (recombinant, unmodified) (from UniProt P41159 22-167) (ligand)”, the EC50 of STAT3-responsive dual luciferase reporter in HEK293 cells transiently transfected with human LepRb (whole receptor on cells); leptin 50 fM to 500 nM, 18 h in test [1] was 100 pM.

As to “huLeptin^W100Q (recombinant, unmodified) (from UniProt P41159 22-167) (ligand)”, the EC50 of STAT3-responsive dual luciferase reporter in HEK293 cells transiently transfected with human LepRb (whole receptor on cells); leptin 50 fM to 500 nM, 18 h in test [1] was 130 pM.

B1: His6-PAS(200)-muLeptin (ligand)
chain: ASPAAPAPASPAAPAPSAPAASPAAPAPASPAAPAPSAPAASPAAPAPASPAAPAPSAPAASPAAPAPASPAAPAPSAPAASPAAPAPASPAAPAPSAPAASPAAPAPASPAAPAPSAPAASPAAPAPASPAAPAPSAPAASPAAPAPASPAAPAPSAPAASPAAPAPASPAAPAPSAPAASPAAPAPASPAAPAPSAPAAVPIQKVQDDTKTLIKTIVTRINDISHTQSVSAKQRVTGLDFIPGLHPILSLSKMDQTLAVYQQVLTSLPSQNVLQIANDLENLRDLLHLLAFSKSCSLPQTSGLQKPESLDGVLEASLYSTEVVALSRLQGSLQDILQQLDVSPEC
For B1, the “EC50 of STAT3-responsive dual luciferase reporter in HEK293 cells transiently transfected with human LepRb (whole receptor on cells); PASylated leptin 50 fM to 500 nM, 18 h” value in test [2] came to 160 pM.
